Data published in FireProtDB (doi:10.1002/pro.342).

Conditions: Escherichia coli, pH 6.3, CD, Phosphate 50 mM, NaCl 300 mM, whole UniProt chain shown

B1: Regulatory protein rop wild type, P03051 (protein)
chain: MTKQEKTALNMARFIRSQTLTLLEKLNELDADEQADICESLHDHADELYRSCLARFGDDGENL
Tm (Thermal): 70 °C | heat capacity change of unfolding (Thermal): 1.1 kcal/mol/K | unfolding enthalpy (van 't Hoff) (Thermal): 65 kcal/mol | denaturant m value (Urea): 2.1 kcal/mol/M | denaturant midpoint (higher = more stable) (Urea): 4.6 M | unfolding free energy (Urea): 16 kcal/mol
